# Test results as given in publication PMC10334339.
# B1: 2′-Deoxynucleoside 5′-monophosphate N-glycosidase 1 (DNPH1) (Homo sapiens) (protein)
# chain: AAAMVPGRSESWERGEPGRPALYFCGSIRGGREDRTLYERIVSRLRRFGTVLTEHVAAAELGARGEEAAGGDRLIHEQDLEWLQQADVVVAEVTQPSLGVGYELGRAVAFNKRILCLFRPQSGRVLSAMIRGAADGSRFQVWDYEEGEVEALLDRYFEADPPGQVAASPDPTT
# Substrate: O=c1[nH]c(=O)n([C@H]2C[C@H](O)[C@@H](COP(=O)(O)O)O2)cc1CO
# Assay: purified protein
# Type: biochemical, Homo sapiens
protein,measurement,value
B1,Km,6.3 ± 0.5 µM
